The nature of series [1]: kcat, KM and Ki determination, rate vs [DMAPP], fit to uncompetitive substrate inhibition. Type of series: biochemical. As to the method:
10 uL of purified enzyme was incubated with DMAPP at concentrations ranging from 1.25 to 20 mM DMAPP in a buffer containing 50 mM Tris, 50 mM MgCl2 and 50 mM NaCl (pH=8) to a final volume of 100 uL for 15 min. at 30 C in gas tight 2 mL vials. Reactions were terminated with the addition of 100 uL of 250 mM EDTA, pH=8. Samples were analyzed by GC-MS to determine the concentration of isoprene in the headspace of the vials. Data were analyzed using Kaleidagraph and fit to following equation for uncompetitive substrate inhibition: rate/E=kcat*S/(KM+S*(1+S/Ki)). All kinetic assays were performed in triplicate.
Protein concentration was determined by measuring the absorbance of each protein solution at 280 nm on a Helwlett Pachard 8453 UV-Vis spectrophotometer and converting the absorbance to protein concentration using the extinction coefficient as determined on the Expasy website (Gasteiger E., Hoogland C., Gattiker A., Duvaud S., Wilkins M. R., Appel R. D., Bairoch A.; Protein Identification and Analysis Tools on the ExPASy Server; (In) John M. Walker (ed): The Proteomics Protocols Handbook, Humana Press (2005). pp. 571-607). The protein concentrations of isoprene synthase variants assayed for KM and kcat determination were verified by comparative gel electrophoresis of a dilution series of each protein (FIG. 61).

Series [2] in a line: Specific activity measurement of purified isoprene synthase variants (4 mM DMAPP, 30 C, GC-MS headspace). Format: biochemical. A digest of the protocol:
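Ni-affinity-purified, buffer-exchanged enzyme incubated with 4 mM DMAPP and 50 mM MgCl2 in 50 mM Tris, 50 mM NaCl, pH 8, for 15 min at 30 C in sealed vials; stopped with EDTA. Headspace isoprene quantified by GC-MS, in triplicate; protein concentration from A280 with calculated extinction coefficient.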

Series [3] can be described thus: Small scale expression and yield of purified 6xHis-tagged IspS variants. To be noted: BL21(λDE3)pLysS, 100 mL cultures. The procedure: N-terminally 6×His-tagged wild type IspS, IspS-L494P, and IspS-T536F were expressed and purified from strains MD09-167, DW399, and DW363, respectively. The growth procedure is suitable for histidine tagged enzymes expressed in BL21(λDE3)pLysS cells. A 3 ml of overnight culture was prepared for each 100 mL of planned growth. The appropriate antibiotics ([…] kanamycin, […] chloramphenicol) were added to 3 ml of LB medium in a 10 ml glass tube and was inoculated with 1 colony from a fresh plate of cells or directly from glycerol frozen cell stock. Cultures were grown at 30° C. overnight with shaking at ˜220 rpm. Day cultures were prepared in 100 mL of LB medium with appropriate antibiotics for each culture. Each 100 mL day culture was inoculated with 50 μl of overnight culture and grown at 37° C. with shaking at ˜220 rpm until the OD600 reached ˜0.4-0.6. Day cultures were then induced with 400 μM IPTG and allowed to continue growing at 30° C. with shaking at 220 rpm for ˜5-6 hours. […] Following Harvest, cells were used directly or stored at −80° C. until ready to process. […]
To buffer exchange the protein into a buffer suitable for protein assays and storage, a PD-10 column (GE Healthcare) was equilibrated with 25 mL PD-10 buffer (50 mM HEPES, 0.05 M NaCl, pH 7.4). […] The eluate was then analyzed by absorbance at 280 nm and SDS-PAGE gel and the samples were stored at −80° C.

Numbering of substitutions follows the chain as printed. In names and notes the source's numbering stands.

B1: L494P: P. alba IspS variant L494P; pDW101, strain DW399, SEQ ID NO: 69 (protein)
chain: MEARRSANYEPNSWDYDYLLSSDTDESIEVYKDKAKKLEAEVRREINNEKAEFLTLLELIDNVQRLGLGYRFESDIRGALDRFVSSGGFDAVTKTSLHGTALSFRLLRQHGFEVSQEAFSGFKDQNGNFLENLKEDIKAILSLYEASFLALEGENILDEAKVFAISHLKELSEEKIGKELAEQVNHALELPLHRRTQRLEAVWSIEAYRKKEDANQVLLELAILDYNMIQSVYQRDLRETSRWWRRVGLATKLHFARDRLIESFYWAVGVAFEPQYSDCRNSVAKMFSFVTIIDDIYDVYGTLDELELFTDAVERWDVNAINDLPDYMKLCFLALYNTINEIAYDNLKDKGENILPYLTKAWADLCNAFLQEAKWLYNKSTPTFDDYFGNAWKSSSGPLQLVFAYFAVVQNIKKEEIENLQKYHDTISRPSHIFRLCNDLASASAEIARGETANSVSCYMRTKGISEELATESVMNLIDETWKKMNKEKLGGSPFAKPFVETAINLARQSHCTYHNGDAHTSPDELTRKRVLSVITEPILPFERENLYFQGLEHHHHHH
A word on the Km: it is the concentration of substrate that gives half-maximal velocity. On to B1, for which, in series [1] (1.25 to 20 mM DMAPP, 30 C), the “KM compared to WT isoprene synthase, in words” value is “less than the KM of the WT” and the “rate profile vs [DMAPP]” value is given as “uncompetitive substrate inhibition by DMAPP”. The Km in series [1] (1.25 to 20 mM DMAPP, 30 C, average of three trials ± one standard deviation) stood at 3.6 ± 0.5 mM. Moreover, in series [1] (1.25 to 20 mM DMAPP, 30 C, average of three trials ± one standard deviation, in s^-1 (unit assumed)), the kcat turned out to be 2.1 ± 0.1. Besides, the “kcat compared to WT isoprene synthase, in words” value in series [1] (1.25 to 20 mM DMAPP, 30 C, listed as β) was “greater than the kcat of the WT”. The Ki in series [1] (uncompetitive substrate inhibition by DMAPP, average of three trials ± one standard deviation, read-out: KiDMAPP) amounted to 13 ± 1 mM. For the same molecule, the S.A. in series [2] (50 mM NaCl, 50 mM Tris pH = 8, 30° C.) stood at 950 ± 40 nmol/mg/min. The “Variant S.A./WT S.A.” value in series [2] (50 mM NaCl, 50 mM Tris pH = 8, 30° C., ratio to WT) is on record as 2.0. Also, the “specific activity compared to WT isoprene synthase, in words” value in series [2] (30 C, purified enzyme) is given as “increased specific activity”. In series [2] (30 C, purified enzyme, listed as P), the “specific activity, times/fold greater than WT” value came to 2.0. In series [2] (30 C, purified enzyme, listed as β), the “specific activity, times/fold greater than WT” value was determined as 2. For the same molecule, in series [3], the “expression level (yield of purified protein) compared to wild type, in words” value is recorded as “expressed at higher levels than the wild type protein”.

B2: T536F: P. alba IspS variant T536F; pDW87, strain DW363, SEQ ID NO: 95 (protein)
chain: B1 chain with P494L, T536F
Consider B2, for which the “expression level (yield of purified protein) compared to wild type, in words” value in series [3] was “expressed at higher levels than the wild type protein”.

Values taken from US9175313B2, “Three-dimensional structure of isoprene synthase and its use thereof for generating variants” (Danisco US Inc., priority 2009, dated 2015).
